Assay results reported in PMC8056888 (Journal of Applied Glycoscience, 2017).

B1: Agl1 (Aspergillus oryzae RIB40) (protein)
chain: MATPGNQNHRAWWKESSVYQIWPCSFKDSNDDGIGDIPGIISKLDHIKNLGIDIVWLCPSYKSPQVDMGYDIADYYDIAPEYGTVADVEKLIKGCHERGMKLLMDLVVNHTSDQHEWFKQSRSSKDNEYRNWYIWKPARYDEQGNRQPPNNWVSHFQGSAWEWDEHTQEYYLHLYATEQPDLNWEHPPVRKAVHDIMRFWLDKGANGFRMDVINFISKDQRFPDAPIKDPRTPWQWGDKYYANGPRLHEYFQELGKILKEYDTFSVGEMPFVTDTEEVLRAVKYDRNELNMIFNFEHVDIDHGKYDKFEPGSWELTDLKFFFERWQKFMYENDGWNALYWENHDQPRSVDRYTNAKEEDRVIASKMLATILALKAGSPFVYQGQEIGMGNVPPEWDIEEYKDIDCLNHWKRLPNDPEIQKIARQEYQKKSRDNGRTPVQWTNAPNAGFTSPNVKPWMSVNPNYARGINAEAQVNDPNSTYSYWASVLGLRKKYVDIFVYGNYELVDRDSQEIFAYTRQYEDQKALVLANWTDGTLEWDSSSNGVKAVKDVLLNTYDSASDVKERFSGSKWSLRPYEAVVLLIEA
B2: AgdC (Aspergillus niger CBS 513.88) (protein)
chain: MAKSASQIHRAWWKECSVYQIWPASYKDSNDDGIGDIPGIISKLDYIKNIGVDIVWLCPSYKSPQVDMGYDIADYYSIADEYGTVADVEKLIQGCHERGMKLLMDLVVNHTSDQNEWFKQSRSSKDNKYRNWYVWKPARYDEQGNRHPPNNWVSHFQGSAWEWDEHTGEYYLHLYATEQPDLNWEHPPVRKAVHDIMRFWLDKGADGFRMDVINFISKDQRFPDAPVKDPRTPWQWGDKYYANGPRLHEYLQDLGKILKEYDAFSVGEMPFVRDTEEVLRAVRYDRNEINMIFNFEHVDIDHGTYDKFEPGSWKLTDLKAFFETWQKFMYNNDGWNALYWENHDQPRSIDRYAQAKEEFRTEAGKMLATVLALQSGTPFVYQGQEIGMRNVPVEWDMNEYKDIDCLNHWHRLLKHRPDDIEAQKSARQEYQKKSRDNGRTPVQWSSAPNGGFTGPNAKPWMSVSPDYVRFNAEAQVNDPNSIYHYWAAVLGLRKKYLDIFVYGDYDLVDKDSQEIFAYARQYENKKALVLTNWTEKTLEWDATTNGVKGVKDVLLNSYESAEAAKGRFSGQKWSLRPYEAVVLLVEA

Columns and labels:
[1] = tested on: Foagl1; settings: conditions not stated for this substrate
[2] = substrate: O=[N+]([O-])c1ccc(O[C@H]2O[C@H](CO)[C@@H](O)[C@H](O)[C@H]2O)cc1; assay: purified protein; settings: pH 6.0, sodium phosphate, 30 °C
[3] = substrate: CO[C@H]1O[C@H](CO)[C@@H](O)[C@H](O)[C@H]1O; assay: purified protein; settings: conditions not stated for this substrate

| Molecule | Km [1] | Km [2] | kcat [2] | kcat/Km [2] | Km [3] | kcat [3] |
| --- | --- | --- | --- | --- | --- | --- |
| CO[C@H]1O[C@H](CO)[C@@H](O)[C@H](O)[C@H]1O [α-MG] | 24.3 mM |  |  |  |  |  |
| B1 |  | 8.3 mM | 17.5 s⁻¹ | 2120 M⁻¹ s⁻¹ | 31.3 mM |  |
| B2 |  | 7.8 mM | 19.8 s⁻¹ |  | 32.8 mM | 5.0 s⁻¹ |
